Experiment: yeast display, Sf9 membrane polyspecificity reagent, FACS + sequencing; frameworks hold sequencing errors
Procedure, shortened: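 Synthetic nanobody libraries on Saccharomyces cerevisiae BJ5465 were galactose-induced for 36–48 hours, stained 1 hour at 4 °C with 10% biotinylated, detergent-solubilized Sf9 membrane reagent and enriched on streptavidin microbeads. FACS then separated cells into low and high (top ~1%) gates by anti-HA (expression) and streptavidin (reagent binding) fluorescence. Genes were colony-PCR amplified, MiSeq 2 × 250 sequenced and CDR-length filtered. A clone's polyreactivity label is that of its gate of origin.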

Row | Sequence | polyreactivity (PSR sort gate)
1 | QVQLVESGGGLVQAGGSLRLSCAASGSIFFDGNAMGWYRQAPGKERELVAAISVSGGSTYYADSVKGRFTISRDNAKNTVYLQMNSLKAEDTAVYYCAKYPSKSYVPGDYWGQGTQVTVSS | low polyreactivity
2 | QVQLVESGGGLVQAGGSLRLSCAASGGIFLYNAMGWYRQAPGKERELVAAISRSGGGTYYADSVKGRFTISRDNAKNTVYLQMNSLKPEDTAVYYCAKTLRAYSDYYYWGQGTQVTVSS | high polyreactivity
3 | QVQLVESGGGLVQAGCSLRLSCAASGRTFYYYAMGWYRQAPGKERELVAAISKSGGSTYYADSVKGRFTISRDNAKNTVYLQMNSLKPEDTAVYYCAALTTHAPHSYNYWGQGTQVTVSS | low polyreactivity
4 | QVQLVESGGGLVQAGGSLRLSCAASGFTFVRNALGWYRPAPGKERELVAAITDAGRTTYADSVKGRFTISRDNAKNTVYLQMNSLKPEDTAVYYCAKGKWWGWPWYSMDYWGQGTQVTVSS | low polyreactivity
5 | QVQLVESGGGLVQAGGSLRLSCSASGSISGYYAMGWYRQAPGKERELVASIRYTGARTYYADSVKGRFTISRDNAKNTVYLQMNSLKPEDTAVYYCAAERSWYTWFASDYDYWGQGTQVTVSS | low polyreactivity
6 | QVQLVESAGGLVQAGGRLRLSCAASGRTFTYYAMGWYRQAPGKERELVAAISFSGGRTYYADSVKGRFTISRDYAKNTVYLQMNSLKPEDTAVYYCAAENYYTRYRDRDYWGQGTQVTVSS | high polyreactivity
7 | QVQLVESGGGLVQAGGSLRLSCAASGRTFDIYAMGWYRQAHGKERELVAAISSGGSTYYADSVKGRFTISRDNAKNTVYLQMNSLKPEDTAVYYCAVRWYDQVSRRGIGYYWGQGTQVTVSS | low polyreactivity
8 | QVQLVESGGGLVQAGGSLRLSCAASGFISPPYAMGWYRQAPGKVMELVAAISSNGGRTSYADSVKGRFTISRDNAKNTVYLQMNSLKPEDTAVYYCNAVYSLYYTRYNYWGQGTQETVSS | high polyreactivity
9 | QVPLVESGGGLVQAGGSLSLTCAASGRNLKYYDMGWYRQAPGKERELVAAISVSGTSTYYADSVKGRFTISRDNAKNTVYLQMNSLKPEDTAVYYCATATGRYSFDYWGQGTQVTLSS | low polyreactivity
10 | QVQLVESGGGLVQAGGSLRVSCAASGSTFPPSAMGWYREAPGKERELGAAIDWSDGTTYYADSVKGRFTISRDYAKNTVYLQMNSLKPEDTAVYYCAADPVLDEYDYWGQGTQVTVSS | low polyreactivity
11 | QVQLVESGGGLVQAGGSLRLSCAASGSIFDQYTMGWYRQAPGKARELVAAIRFSGGSTSYADSVKGRFTISRDNAKNTVYLQMISLKPEDTAVYYCNVDAITGGDWEDFDYWGQGTQVTVSS | low polyreactivity
12 | QVQLVESGGALVQAGRSLRLSCAASGSIFSSYAMGRYRQAPGKERELVAAISRSGGRTYYADSVKGRFTITRDNAKNTVYLQMNSLKTEDTAVYYCAARRVLGEYGYWGQGTQVTVSS | high polyreactivity
13 | QVQLVESGGGLVQAGGSLRLSCAASGSIIWLYAMGWYRQAPGKERELVAAISSGGSTYYADSVKGRFTISRDNAKNTVYLQMNSLKPEDTAVYYCAADYWSQSDWWDLTEYEYWGQGTQVTVSS | high polyreactivity
14 | QVQLVESGGGLVQAGGSLRLSCAASGRTFGRYAMGWYRQAPGKERELVAAITRGGGSTYYADSVKGRFTISRDNAKNTVYLQMNSLKPEDTAVYYCAARNFRSPYGYDYWGQGTQVTVSS | high polyreactivity
15 | QVQLVESGRGLVQAGGSLRLSCAASGFMIGINAMGWYRQAPGKERELVDAISTGDRTNYAHSVKGRFTISRDNAKNTVYLQMNSLKPEDTAVYYCAKDWRRNRPYEWTYDYWGQGTQVTVSS | low polyreactivity
16 | QVQLVESGGGLVQAGGSLRLSCAASGSIFGKYTMGWYRQAPGKEREFVAAITSVGSTNYADSVKVRFTISRDNAKNTVYLQMNSLKPVDTAVYYCAADTIGYHYWYDYWGQGTQVTVSS | low polyreactivity
17 | QVQLVESGGGLVKAGGSLRLISAATGSIFTFYAMGWYRQAPGKERELVATINRIGGNTYYADSVKGRFTISRDNAKNTVYLQMNSLKPEDTAVYYCAAKPTDRGYGYGSWGQGTQVSVSS | low polyreactivity
18 | QVQLVESGGGLVHAGGSLRVSCAASGFTFYLYTMGWYRQAPGTERELVAAINYSGGRTYYADSVKGRFTISRDYAKNSVYLQMNSLKPEDTAVYYCYPRVKNLQAYDYWGQGTQVTVSS | high polyreactivity
19 | QVQLVESGGGLVQAGGSLRLSCAASGRIFPLYAMGWYRQAPGKERELGAAISSGGTTYYADSVKGRFTISRDNAKNTVYLQMNSLKPEDTAVYYCARRPAQRWGRFDYWGQGTQVTVSS | low polyreactivity
20 | QVQLVESGGGLVEAGGSLRLSCAASGRIFKVYAMGWYRQGPGKERELVAAISRSCGSTYYADSVKGRFTISRDKAKITVSLQMNSLKPEDTAVYYCNAYFVSGHAGGYDYWGQGTQVTVSS | high polyreactivity
21 | QGQLVDSGGGLVQAAGSLRLSCDASGRTFVYNDMGWYRQAPGKERELVATISVSGCSTYYADSVKGRFTISRDNAKNTVYLQMISLKPEDTAVYYCAARRTWYEDHDYWGQGTQVTVSS | low polyreactivity
22 | QVQLVESGGGLVQAGGSLRLSCDASGRLFYRNAMGWYRQAPGKDRELVASITSAGRTYYADSVKGRFTISRDNAKNTVYLQMNSLKPEDTAVYYCAVRGYAKSFSNAKYYYWGQGTQVTVSS | low polyreactivity

Row | Sequence | polyreactivity (PSR sort gate)
23 | QVQLVESGGGLVQAGGSLRLSCAASGSIFVSNTMGWYRQAPGKEREMVASIRETAGSTNYADSVKGRFTISRDYAKNTFYLQMNSLKPEDTAVYYCAARYSPTRYHYGYWGQGTQVTVSS | low polyreactivity
24 | QVQLVESGGGLVQAGGSLRLSCAASGSIFGEYTMGWYRPAPGKERELVAAIRSGGDTYYADSVKGRFTISRDNAKNTVYLQMNSLKPEDTAVYYCNAYWVRHYIMDYWGQGTQVTVSS | low polyreactivity
25 | QVQLVESGGGLVQAGGSLRLSCAASGSTFSYYAMGWYRQAPGKERELVAVISRGGSTNYADSVKGRFTISRDNAKNTVYLQMNSLKPEDTAVYYCAAYVLPWRGRGQTEYGYWGQGTQVTVSS | low polyreactivity
26 | QVQLVESGGGLVQAGGSLRLSCAASGRIFPKYAMGWYRQAPGKERELVAAISSSGGSTYYADSVKGRFTISRDNAKNTVYLQMNSLKPEDTAVYYCAAEQYSYGYTIYEYWGQGTQVTVSS | high polyreactivity
27 | QVQLVESGGGLVQAGGSLRLSCAASGRIFTVYAMGWYRQAPGKERELVAAIDWSDGSTYYADSVKGRFTISRDNAKNTVYLQMNCLKPEVTAVYYCAAETYWVVEYDYWGQGTQVTVSS | high polyreactivity
28 | QVQLVESGGGLVQAGGSLRLSCAASGRTFTRYAMGWYRQSPGKERELVAAISTSGDSTYYADSVKGRFTISRDNAKNTVYLQMNSLKPVDTAVYYCNTYWTSEYDYWGQGTQVTVSW | low polyreactivity
29 | QVQLVESGGGLVQAGGSLRLSCAASGSILEVYAMGWYRQAPGKERELVAAISDGDSTYYADSVKGRFTISRDNAKNTVYLQMNSLKPEDTAVYYCAAEFVGTLWWYDYWGQGTQVTVSS | low polyreactivity
30 | QVQLVESCGGLVQAGASLRLSCAASGRTFSENAMGWYRQARGKEREFVAGNSFSGDGRTYYADSVKGRFTISRDNAKNTVYLQMNSLKPEDTAVYYCAAPHRSRTHELDYWGQGTQVTVSS | low polyreactivity
31 | QVLLVESGGGLVQAGGSLRLSCAASGISIRAKAMGGYRQAPGKVRELVAAITWSGGDPYYADSVKGRFTISRDNAKNTVYLQMNSLKPEDTAVYYCNALQPGLGSPLGEYDYWGQGTQVTVSS | low polyreactivity
32 | QVQLVESGGGLVQAGGSLRLSCAASGSTFTGYVMGWYRQAPGKERELVAAITSSVDGTYYADSVKGRFTISRDNAKNTVYLQMNSLKPEDTAVYDCAADLWKGVYPSYDYWGQGTQVTVSS | low polyreactivity
33 | QVQLVESGGGLVQAGGSLRLSCAASGLIFNYNSMGWYLQAPGKEMELVAVITSGDSTNYADSVKGRFTISRDNAKNTVYLQMNSLKPEDTAVYYCNADYVYSGGRYYGKDYWFDYWGQGTQVTVSS | low polyreactivity
34 | QVQLVESGGGLVQAGGSLRLSCAASGSTFYSYAMGWYRQAPGKERELVADIDWSGGSTYYADSVKGRFTISRDNAKNTVYLQMNSLKPEDTAVYYCNAERGATGYYVTGDDYWGQGTQVTVSS | low polyreactivity
35 | QVQLVESCGGLVQAGGSLRLSCAASGSIFADYAMGWYRQAPGKEREFVAAITRSGTSTYYADSVKGRFTISRDNAKNTVYLQMTSLKPVDTPVYYCAKTEVLLYLYTLDYWGQGTQVTVSS | low polyreactivity
36 | QVQLVESGACLVQAGGSLRLSCAASGGIFYYYAMGWYRQAPGKERELVAVISPGGGRTYYADSVKGRFTISRDIAKNTVYLQKNSLKPEDTAVYYCARDSPGDGGREVARGSYNYWGQGTQVTVSS | high polyreactivity
37 | QVQLVESGGGLVQAGGSLRLSCAASGLTFYRYAMGWYRQAPGKERELVAAISFSGGSTYYADSVKGRFTISRDNAKNTVYLQMNSLKPEDTAVYYCAKVDTPGSQRYITPEEGPEYDYWGQGTQVTVSS | high polyreactivity
38 | QVQLVESGGGLVQAGGSLRLSCAASGNIFLYYAMGWYRPAPGKERELVADIDSSGAATYYADSVKGRFTISRDYAKNTVYLQMNSLKPEDTAVYYCAAEFHWWYAGYDYGYWGQGTQVTVSS | low polyreactivity
39 | QVQLVESGGGLVQAGGSLRLSCAASGSIFYSNAMGWYRQAPGKERELVATIRSGGTTYYADSVKGRFTISRDNAKNTVYLQMNSLKPEDTAVYYCANRYGVKYWGQGTQVTVSS | high polyreactivity
40 | QVQLVESRGGLVQAGGSLRLSCAASGLIFLHNAMGWYRQAPGKERELVAAIRDGDSTNYADSVKGRFTISRDNAKNTVYLQMNSLKPEDTAVYYCAKDPTLVAYAPGRYDYWGQGTQVTVSS | low polyreactivity
41 | QVHLVESGGGLVQAGGSLRLSCAASGRIFADYAMGWYRQAPWKERELVADIRQSGGRTYYADSVKGRFTISRDYAKNTVDLQMNSLKPEDTAVYYCATDYGSWGDYSGKYDYWGQGTQVTVSS | low polyreactivity
42 | QVQLVESVGGLVQAGGSLRLSCAASGSTFVDYAMGWYRQAPGKERELVAGINGSGGSTYYADSVKGRFTISRDNAKNTVYLQMNSLKPEDTAVYYCNARNPWRKRSQGYSWGQGTQVTVSS | low polyreactivity
43 | QVQLVESGGALVQAGGSLRLSCAASGFTFIPNAMGWYRQAPGKERELVAAIYSSGGTTYYADSVKGRFTISRDTAKNTVYLQMNSLKTEDTAVYYCARRVYGYYIPYNYWGQATQVTVSS | high polyreactivity

— the nanobody polyreactivity screen of Harvey et al. (2022)
